We go through two molecules from patent US20050272633A1.

The target in the experiment is NIK624-947 (C-terminal domain of NIK) (human) (UniProt Q99558). The experiment in a line: yeast two-hybrid, against cγc 289-369 as reference.

Where no end group is shown, it is not given here.

Sequence of NIK624-947 (C-terminal domain of NIK) (human) (Q99558 624-947 limits assumed): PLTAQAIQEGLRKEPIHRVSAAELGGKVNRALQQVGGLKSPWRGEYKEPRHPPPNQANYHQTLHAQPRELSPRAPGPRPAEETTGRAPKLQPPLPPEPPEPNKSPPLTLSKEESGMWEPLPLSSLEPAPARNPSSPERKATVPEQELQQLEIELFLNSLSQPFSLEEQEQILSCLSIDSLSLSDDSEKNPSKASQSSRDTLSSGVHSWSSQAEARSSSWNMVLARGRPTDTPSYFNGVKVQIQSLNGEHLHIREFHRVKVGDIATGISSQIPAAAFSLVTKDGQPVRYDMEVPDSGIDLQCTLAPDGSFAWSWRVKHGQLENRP

B1: cγc 289-357 (12 aa deleted from the membrane distal domain) (receptor, not shown: large carriers)
chain: RIPTLKNLEDLVTEYHGNFSAWSGVSKGLAESLQPDYSERLCLVSEIPPKGGALGEGPGASPCNQHSPY
The molecule B1 came in with a reduction in affinity of 50%.

B2: cγc 289-325 (44 aa deleted from the ICD) (receptor, not shown: large carriers)
chain: RIPTLKNLEDLVTEYHGNFSAWSGVSKGLAESLQPDY
modifications: also: fused to GAL4 DNA-binding domain (two-hybrid bait), letters not given here
In turn, B2 showed a reduction in affinity of 50%.
